Data as given in the supplement of paper PMC10065799, “High-throughput profiling of sequence recognition by tyrosine kinases and SH2 domains using bacterial peptide display” (eLife, 2023).

What was measured:
[1] = biological target: c-Src SH2; assay: SH2 binding enrichment of the phosphorylated peptide, bacterial display (enrichment ratio); higher = better substrate or ligand; peptides without Tyr show the background
[2] = biological target: Grb2 SH2 (UniProt P62993); assay: as above
[3] = biological target: SHP2-C SH2; assay: as above
[4] = biological target: Hck (UniProt P08631); assay: phosphorylation enrichment, bacterial display (enrichment ratio); higher = better substrate or ligand; peptides without Tyr show the background
Chain of Hck (P08631 whole entry, looked up): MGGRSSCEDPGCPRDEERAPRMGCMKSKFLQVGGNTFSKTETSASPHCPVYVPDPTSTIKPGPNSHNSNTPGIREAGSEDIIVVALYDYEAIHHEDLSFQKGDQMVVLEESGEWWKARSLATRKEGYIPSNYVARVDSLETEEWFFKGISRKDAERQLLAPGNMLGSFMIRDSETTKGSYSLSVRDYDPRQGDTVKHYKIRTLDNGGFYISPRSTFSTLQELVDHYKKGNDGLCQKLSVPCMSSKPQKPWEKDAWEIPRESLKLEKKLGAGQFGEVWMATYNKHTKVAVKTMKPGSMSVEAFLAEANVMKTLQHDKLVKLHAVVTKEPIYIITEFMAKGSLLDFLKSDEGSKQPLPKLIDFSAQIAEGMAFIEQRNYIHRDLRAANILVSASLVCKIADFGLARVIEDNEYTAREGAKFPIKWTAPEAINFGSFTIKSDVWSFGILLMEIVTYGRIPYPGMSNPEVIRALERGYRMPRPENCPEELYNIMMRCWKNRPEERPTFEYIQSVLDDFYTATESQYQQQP

[5] = tested on: AncSZ; assay: as above
[6] = biological target: EPHB1 (UniProt P54762); assay: as above
[7] = biological target: Fyn (UniProt P06241); assay: as above
Chain of Fyn (P06241 whole entry, looked up): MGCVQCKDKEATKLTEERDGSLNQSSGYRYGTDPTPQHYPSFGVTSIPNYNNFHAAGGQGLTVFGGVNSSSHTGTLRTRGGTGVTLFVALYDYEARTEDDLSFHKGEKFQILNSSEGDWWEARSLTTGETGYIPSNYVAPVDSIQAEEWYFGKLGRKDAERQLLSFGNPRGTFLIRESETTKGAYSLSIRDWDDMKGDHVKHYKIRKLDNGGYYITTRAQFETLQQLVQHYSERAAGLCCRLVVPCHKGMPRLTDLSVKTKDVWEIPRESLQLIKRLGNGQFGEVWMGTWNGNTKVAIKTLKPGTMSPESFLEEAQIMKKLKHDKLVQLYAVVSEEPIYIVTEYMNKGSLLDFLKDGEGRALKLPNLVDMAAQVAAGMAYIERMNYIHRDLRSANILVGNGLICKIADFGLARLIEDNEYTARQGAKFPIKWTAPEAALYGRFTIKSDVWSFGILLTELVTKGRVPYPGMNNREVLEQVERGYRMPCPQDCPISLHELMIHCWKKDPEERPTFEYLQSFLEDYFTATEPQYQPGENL

[8] = biological target: MERTK (UniProt Q12866); assay: as above
[9] = biological target: FGFR3 (UniProt P22607); assay: as above
Chain of FGFR3 (P22607 whole entry, looked up): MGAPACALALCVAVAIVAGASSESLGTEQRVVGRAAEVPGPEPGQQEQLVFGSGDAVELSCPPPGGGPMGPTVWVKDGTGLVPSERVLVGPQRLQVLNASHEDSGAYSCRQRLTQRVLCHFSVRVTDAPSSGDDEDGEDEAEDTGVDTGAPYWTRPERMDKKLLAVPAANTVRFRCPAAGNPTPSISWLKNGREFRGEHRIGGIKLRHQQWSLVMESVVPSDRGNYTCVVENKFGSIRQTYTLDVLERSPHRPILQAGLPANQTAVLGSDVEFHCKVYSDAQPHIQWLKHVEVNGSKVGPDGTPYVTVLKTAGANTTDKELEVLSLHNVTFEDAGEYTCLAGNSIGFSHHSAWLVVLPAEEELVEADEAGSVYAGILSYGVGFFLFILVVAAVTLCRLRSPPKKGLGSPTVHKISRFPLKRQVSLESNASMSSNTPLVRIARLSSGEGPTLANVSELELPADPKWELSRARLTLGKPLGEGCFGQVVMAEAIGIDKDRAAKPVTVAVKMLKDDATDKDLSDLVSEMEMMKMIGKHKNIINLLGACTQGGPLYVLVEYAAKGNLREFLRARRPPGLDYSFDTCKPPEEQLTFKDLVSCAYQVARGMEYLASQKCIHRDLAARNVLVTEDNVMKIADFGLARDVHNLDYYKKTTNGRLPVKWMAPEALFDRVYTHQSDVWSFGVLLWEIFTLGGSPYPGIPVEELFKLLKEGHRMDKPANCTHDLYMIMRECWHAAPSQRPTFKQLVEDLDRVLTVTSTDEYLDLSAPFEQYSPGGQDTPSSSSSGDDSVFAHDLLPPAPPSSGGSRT

[10] = tested on: c-Src; assay: as above
[11] = biological target: Jak2 (UniProt O60674); assay: as above
[12] = tested on: c-Abl (mouse); assay: as above
[13] = biological target: FGFR1 (UniProt P11362); assay: as above
Chain of FGFR1 (P11362 whole entry, looked up): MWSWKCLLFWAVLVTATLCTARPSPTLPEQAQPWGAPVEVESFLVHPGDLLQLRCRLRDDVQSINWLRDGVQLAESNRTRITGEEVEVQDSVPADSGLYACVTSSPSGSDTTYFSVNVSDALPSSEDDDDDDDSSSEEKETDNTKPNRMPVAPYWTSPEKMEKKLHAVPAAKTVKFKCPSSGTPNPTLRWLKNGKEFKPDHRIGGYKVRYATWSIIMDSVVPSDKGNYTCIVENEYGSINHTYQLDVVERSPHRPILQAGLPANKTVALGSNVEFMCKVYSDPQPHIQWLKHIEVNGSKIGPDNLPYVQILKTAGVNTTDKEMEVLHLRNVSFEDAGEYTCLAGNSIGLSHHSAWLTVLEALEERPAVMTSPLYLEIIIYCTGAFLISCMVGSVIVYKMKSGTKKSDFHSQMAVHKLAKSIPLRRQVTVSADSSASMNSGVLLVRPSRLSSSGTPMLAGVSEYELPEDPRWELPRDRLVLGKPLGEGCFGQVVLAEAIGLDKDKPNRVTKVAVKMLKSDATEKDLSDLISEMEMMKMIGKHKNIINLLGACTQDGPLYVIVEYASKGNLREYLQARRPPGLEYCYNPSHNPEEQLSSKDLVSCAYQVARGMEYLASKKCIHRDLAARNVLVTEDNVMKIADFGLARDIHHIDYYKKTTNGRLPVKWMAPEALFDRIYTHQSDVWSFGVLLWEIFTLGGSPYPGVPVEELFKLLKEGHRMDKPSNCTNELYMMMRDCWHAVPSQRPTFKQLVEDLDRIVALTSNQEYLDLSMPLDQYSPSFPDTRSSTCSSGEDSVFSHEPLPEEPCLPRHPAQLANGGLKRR

[14] = biological target: EPHB2 (UniProt P29323); assay: as above
Chain of EPHB2 (P29323 whole entry, looked up): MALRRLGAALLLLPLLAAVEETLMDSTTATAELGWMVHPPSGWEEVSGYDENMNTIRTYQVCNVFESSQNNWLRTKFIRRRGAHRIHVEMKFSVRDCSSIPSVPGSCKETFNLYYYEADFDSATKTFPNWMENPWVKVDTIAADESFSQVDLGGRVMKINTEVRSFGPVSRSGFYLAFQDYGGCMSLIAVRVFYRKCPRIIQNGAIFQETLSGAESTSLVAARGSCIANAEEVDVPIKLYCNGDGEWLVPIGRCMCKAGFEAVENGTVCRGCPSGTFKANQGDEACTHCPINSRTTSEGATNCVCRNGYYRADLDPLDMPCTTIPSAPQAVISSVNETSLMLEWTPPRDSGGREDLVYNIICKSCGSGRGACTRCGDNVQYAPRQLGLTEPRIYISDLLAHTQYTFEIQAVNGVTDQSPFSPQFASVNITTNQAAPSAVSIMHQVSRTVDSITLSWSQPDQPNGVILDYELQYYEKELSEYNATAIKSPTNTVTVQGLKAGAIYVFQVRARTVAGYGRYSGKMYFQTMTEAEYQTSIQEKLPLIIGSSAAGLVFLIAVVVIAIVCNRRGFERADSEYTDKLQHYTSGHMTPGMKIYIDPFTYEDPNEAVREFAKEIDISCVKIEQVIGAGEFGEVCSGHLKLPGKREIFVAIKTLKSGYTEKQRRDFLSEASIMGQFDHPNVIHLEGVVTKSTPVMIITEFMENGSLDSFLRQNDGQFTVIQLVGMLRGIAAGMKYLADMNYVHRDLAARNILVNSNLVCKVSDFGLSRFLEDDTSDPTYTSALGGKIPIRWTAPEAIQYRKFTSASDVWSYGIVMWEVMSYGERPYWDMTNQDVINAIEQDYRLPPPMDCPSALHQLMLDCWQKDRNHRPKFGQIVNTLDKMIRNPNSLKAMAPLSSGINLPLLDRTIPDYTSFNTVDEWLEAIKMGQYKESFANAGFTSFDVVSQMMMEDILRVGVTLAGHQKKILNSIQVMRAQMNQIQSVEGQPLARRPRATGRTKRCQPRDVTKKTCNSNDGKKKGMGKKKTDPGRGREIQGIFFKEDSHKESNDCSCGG

[15] = biological target: Fes (UniProt P07332); assay: as above
Chain of Fes (P07332 whole entry, looked up): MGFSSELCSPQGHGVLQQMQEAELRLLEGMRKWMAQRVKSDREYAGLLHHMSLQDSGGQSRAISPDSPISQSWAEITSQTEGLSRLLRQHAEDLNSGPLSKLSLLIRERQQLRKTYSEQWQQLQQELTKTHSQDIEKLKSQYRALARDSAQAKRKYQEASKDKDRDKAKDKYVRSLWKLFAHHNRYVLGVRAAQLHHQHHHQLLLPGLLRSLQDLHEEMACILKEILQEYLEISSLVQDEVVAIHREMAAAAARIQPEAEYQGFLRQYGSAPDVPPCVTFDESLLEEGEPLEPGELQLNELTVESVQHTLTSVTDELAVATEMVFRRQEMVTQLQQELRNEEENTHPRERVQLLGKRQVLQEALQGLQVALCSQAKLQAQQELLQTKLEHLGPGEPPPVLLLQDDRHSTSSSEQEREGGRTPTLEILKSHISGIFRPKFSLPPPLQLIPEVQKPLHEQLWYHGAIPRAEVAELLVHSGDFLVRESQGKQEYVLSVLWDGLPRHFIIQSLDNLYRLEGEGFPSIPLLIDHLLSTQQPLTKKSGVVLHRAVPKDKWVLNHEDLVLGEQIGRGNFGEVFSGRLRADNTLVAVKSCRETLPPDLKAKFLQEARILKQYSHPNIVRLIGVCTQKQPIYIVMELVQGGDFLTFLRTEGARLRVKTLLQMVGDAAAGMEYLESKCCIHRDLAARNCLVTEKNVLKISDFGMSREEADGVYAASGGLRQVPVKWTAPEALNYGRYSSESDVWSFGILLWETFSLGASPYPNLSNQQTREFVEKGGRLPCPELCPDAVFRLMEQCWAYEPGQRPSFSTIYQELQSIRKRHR

[16] = tested on: Fer (mouse); assay: as above
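For SH2 binding enrichment of the phosphorylated peptide, bacterial display in this document: peptide library displayed on the E. coli surface as eCPX fusions, selected cells deep-sequenced, score is each peptide's frequency after selection divided by its frequency in the input.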
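For phosphorylation enrichment, bacterial display in this document: 11-residue human phosphosite peptides and single-mutation variants displayed on the E. coli surface, counted by deep sequencing, each peptide's frequency after selection divided by its frequency in the unselected input library; frequency after pTyr selection over input frequency; kinase dosed for 20-30% of maximal phosphorylation in three min.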

Chain of Grb2 SH2 (P62993 whole entry, looked up): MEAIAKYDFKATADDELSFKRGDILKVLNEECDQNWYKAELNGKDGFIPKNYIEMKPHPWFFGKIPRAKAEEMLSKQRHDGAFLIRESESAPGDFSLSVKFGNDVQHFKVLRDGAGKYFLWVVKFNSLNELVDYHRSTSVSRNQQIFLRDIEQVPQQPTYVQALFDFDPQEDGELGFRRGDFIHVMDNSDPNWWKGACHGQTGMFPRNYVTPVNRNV

| Sequence | SH2 binding enrichment [1] | SH2 binding enrichment [2] | SH2 binding enrichment [3] | phosphorylation enrichment [4] | phosphorylation enrichment [5] | phosphorylation enrichment [6] | phosphorylation enrichment [7] | phosphorylation enrichment [8] | phosphorylation enrichment [9] | phosphorylation enrichment [10] | phosphorylation enrichment [11] | phosphorylation enrichment [12] | phosphorylation enrichment [13] | phosphorylation enrichment [14] | phosphorylation enrichment [15] | phosphorylation enrichment [16] |
| --- | --- | --- | --- | --- | --- | --- | --- | --- | --- | --- | --- | --- | --- | --- | --- | --- |
| TETGRYEILTE | 17.2 | 0.772 | 0.426 | 0.517 | 0.742 | 0.532 | 0.387 | 0.421 | 0.427 | 0.44 | 0.658 | 0.389 | 0.543 | 0.466 | 0.765 | 0.354 |
| TFEPNYGTVKR [RAPGEF6_Y1447_Q1452R_YF] | 0.514 | 0.982 | 0.687 | 2.72 | 0.707 | 0.55 | 3.76 | 0.385 | 0.45 | 2.66 | 0.497 | 0.691 | 0.448 | 1.45 | 0.586 | 0.701 |
| TFGQVYKGPHV [TNIK_Y40_R43P_YF] | 0.413 | 0.69 | 0.531 | 0.448 | 0.59 | 0.403 | 0.493 | 0.381 | 0.426 | 0.433 | 0.608 | 0.537 | 0.47 | 0.454 | 0.751 | 0.466 |
| TFGQVYKGRHV [TNIK_Y40_YF] | 0.752 | 0.893 | 1.24 | 0.406 | 0.524 | 0.401 | 0.39 | 0.34 | 0.368 | 0.437 | 0.598 | 0.555 | 0.347 | 0.367 | 0.545 | 0.33 |
| TGSFTCEAVEL [MTMR14_Y462_Y462C] | 0.576 | 0.888 | 0.676 | 0.573 | 1.19 | 0.661 | 0.65 | 0.419 | 0.811 | 0.483 | 0.892 | 0.77 | 0.529 | 0.659 | 1.24 | 0.619 |
| TKDTFYKQPMV [GBA_Y451_F456V] | 0.403 | 0.781 | 0.689 | 0.348 | 0.726 | 0.421 | 0.358 | 0.407 | 0.512 | 0.395 | 0.729 | 1.03 | 0.355 | 0.585 | 0.914 | 0.38 |
| TKQLTYEEQYL [PIK3C3_Y310_D314Y] | 0.538 | 0.894 | 0.747 | 0.524 | 0.95 | 0.551 | 0.45 | 0.593 | 0.766 | 0.732 | 1.37 | 0.825 | 0.434 | 0.603 | 1.18 | 0.965 |
| TLGPFYPSLLF [CRYAA_Y18_R21L] | 0.366 | 0.588 | 0.524 | 0.51 | 0.865 | 0.687 | 0.535 | 0.452 | 1.09 | 0.455 | 0.776 | 0.667 | 0.646 | 0.541 | 1.03 | 0.544 |
| TLKDVCDDGKF [RPS6KA3_Y483_Y483C_YF] | 0.66 | 1.16 | 0.809 | 0.427 | 1.03 | 0.555 | 0.446 | 0.498 | 0.601 | 0.433 | 0.873 | 0.885 | 0.583 | 0.545 | 1.1 | 0.523 |
| TLLAFYMGNFS [GLB1_Y552_P549L] | 0.464 | 0.835 | 0.805 | 0.62 | 1.18 | 0.943 | 0.408 | 0.625 | 0.839 | 0.98 | 1.59 | 1.06 | 0.435 | 0.661 | 1.49 | 0.559 |
| TLNHQYDYTFH [CSNK1A1_Y292_D297H] | 7.34 | 1.01 | 0.874 | 0.596 | 0.998 | 0.772 | 0.536 | 1.11 | 1.38 | 1.16 | 0.654 | 0.512 | 2.69 | 0.873 | 0.753 | 1.4 |
| TLPAFYMGNFS [GLB1_Y552] | 0.624 | 0.868 | 0.809 | 0.565 | 0.998 | 0.645 | 0.627 | 0.538 | 0.728 | 0.523 | 1.03 | 0.661 | 0.543 | 0.619 | 1.02 | 0.625 |
| TLQTMYGCDVG [HLA-B_Y123_S121T] | 0.545 | 0.854 | 0.729 | 0.579 | 1.13 | 0.909 | 0.554 | 0.647 | 0.772 | 0.68 | 0.979 | 0.849 | 0.556 | 0.589 | 1.15 | 0.838 |
| TNRSVYFKPSL [NUP153_Y382] | 0.588 | 0.948 | 2.21 | 0.551 | 0.667 | 0.453 | 0.421 | 0.455 | 0.447 | 0.511 | 0.66 | 0.556 | 0.448 | 0.369 | 0.595 | 0.433 |
| TNYCLYLRSLE [MTM1_Y71_R69C] | 0.696 | 1.18 | 2 | 0.668 | 1.67 | 1.93 | 0.545 | 1.19 | 1 | 0.887 | 1.29 | 0.883 | 0.814 | 1.52 | 1.46 | 0.614 |
| TQIGQYGNGLK [MORC2_Y100] | 0.509 | 0.991 | 0.661 | 0.421 | 0.475 | 0.29 | 0.352 | 0.316 | 0.345 | 0.272 | 0.358 | 0.339 | 0.434 | 0.258 | 0.432 | 0.387 |
| TRVMEYISCLD [CLTCL1_Y1043_R1046C] | 0.545 | 0.626 | 0.478 | 0.647 | 1.18 | 0.661 | 0.521 | 0.507 | 0.843 | 0.457 | 0.995 | 1.08 | 0.599 | 0.749 | 1.18 | 0.592 |

| Sequence | SH2 binding enrichment [1] | SH2 binding enrichment [2] | SH2 binding enrichment [3] | phosphorylation enrichment [4] | phosphorylation enrichment [5] | phosphorylation enrichment [6] | phosphorylation enrichment [7] | phosphorylation enrichment [8] | phosphorylation enrichment [9] | phosphorylation enrichment [10] | phosphorylation enrichment [11] | phosphorylation enrichment [12] | phosphorylation enrichment [13] | phosphorylation enrichment [14] | phosphorylation enrichment [15] | phosphorylation enrichment [16] |
| --- | --- | --- | --- | --- | --- | --- | --- | --- | --- | --- | --- | --- | --- | --- | --- | --- |
| TSPKSYPSQKH [CAP2_Y316] | 0.538 | 0.823 | 0.433 | 0.363 | 0.613 | 0.364 | 0.434 | 0.44 | 0.497 | 0.466 | 0.463 | 0.53 | 0.357 | 0.359 | 0.526 | 0.45 |
| TSQSQYSSFRE [CCDC170_Y323_F324S] | 0.663 | 1.1 | 0.779 | 1.14 | 0.604 | 0.51 | 1.37 | 0.57 | 0.531 | 1.88 | 0.687 | 0.607 | 0.63 | 0.77 | 0.626 | 0.523 |
| TSYSGYRYHRH [NKAPL_Y94] | 0.649 | 0.985 | 1.24 | 0.628 | 0.52 | 0.536 | 0.891 | 0.382 | 0.433 | 0.555 | 0.439 | 0.46 | 0.407 | 0.42 | 0.501 | 0.418 |
| TVEDHDYEGGI [TKT_Y563_Y563D] | 0.651 | 1.15 | 1.26 | 0.5 | 1.08 | 0.543 | 0.478 | 0.49 | 0.727 | 0.526 | 0.963 | 0.654 | 0.481 | 0.583 | 1.17 | 0.559 |
| TVLWQYTGTRP [UGT1A1_Y337_R336Q] | 0.455 | 1.01 | 0.793 | 0.499 | 0.903 | 0.539 | 0.398 | 0.345 | 0.645 | 0.22 | 1.01 | 0.436 | 0.366 | 0.43 | 1.04 | 0.419 |
| TYGVVYRAKDK [CDK11B_Y453] | 0.491 | 1.11 | 0.718 | 9.58 | 0.595 | 0.75 | 11.6 | 1.31 | 0.42 | 8.45 | 0.525 | 0.531 | 0.583 | 0.59 | 1.16 | 0.733 |
| TYVVLYDAELT [ERCC4_Y581_R576T] | 1.53 | 1.64 | 1.36 | 0.891 | 1.37 | 4.46 | 0.87 | 2.56 | 1.52 | 0.795 | 1.05 | 0.67 | 1.79 | 2.67 | 1.16 | 0.515 |
| VAMDDYLKNVM [LRRK2_Y707] | 0.418 | 1.01 | 0.648 | 0.418 | 0.903 | 0.517 | 0.449 | 0.51 | 0.59 | 0.409 | 0.831 | 0.659 | 0.493 | 0.409 | 0.956 | 0.333 |
| VCRHNYGVVES [HLA-DRB1_Y112_Y107V] | 1.13 | 0.828 | 0.801 | 0.484 | 0.768 | 0.82 | 0.398 | 0.484 | 0.566 | 0.361 | 0.659 | 0.543 | 0.547 | 1.5 | 0.793 | 0.428 |
| VDSLRYIYPKL [EIF2B3_Y92_A87V] | 10.7 | 0.88 | 1.43 | 0.524 | 0.757 | 0.561 | 0.48 | 0.489 | 0.655 | 0.424 | 0.733 | 0.553 | 0.453 | 0.506 | 0.844 | 0.532 |
| VDTAMYATMQR [TPO_Y55] | 1.55 | 0.878 | 0.764 | 5.09 | 0.697 | 0.568 | 3.02 | 0.764 | 0.507 | 3.92 | 0.531 | 0.705 | 0.518 | 0.672 | 0.706 | 0.519 |
| VEDQFYCVDCF [FHL1_Y208_YF] | 1.32 | 1.71 | 1.64 | 0.926 | 1.61 | 0.748 | 1.44 | 5.12 | 0.863 | 1.73 | 1.35 | 0.867 | 0.703 | 0.697 | 1.29 | 0.874 |
| VEFAKYGSLRG [RET_Y809_YF] | 0.584 | 0.817 | 0.82 | 0.488 | 0.629 | 0.403 | 0.528 | 0.397 | 0.469 | 0.437 | 0.541 | 0.622 | 0.417 | 0.458 | 0.664 | 0.4 |
| VEYAKYGSLRG [RET_Y809] | 0.583 | 0.461 | 2.61 | 0.758 | 0.544 | 0.441 | 1.21 | 0.473 | 0.47 | 1.56 | 0.335 | 0.824 | 0.349 | 0.409 | 0.552 | 0.395 |
| VFDMLYQVANL [USP24_Y1087_L1089V] | 0.769 | 1.16 | 1 | 4.24 | 1.79 | 2.75 | 2.92 | 2.78 | 0.923 | 4.11 | 0.863 | 2.06 | 0.943 | 5.28 | 1.06 | 11.7 |
| VGTKRYRAPEV [ACVRL1_Y375_M376R] | 0.528 | 0.892 | 0.861 | 0.305 | 0.443 | 0.308 | 0.379 | 0.339 | 0.363 | 0.335 | 0.351 | 0.499 | 0.298 | 0.338 | 0.565 | 0.364 |
